Source: patent US20060019296A1, “Methods of indentifying modulators of the FGF receptor” (Mount Sinai School of Medicine, published 2006)
Square brackets hold non-standard residues; d marks the D form. Ends that are not written are not given here. pY = N[C@@H](Cc1ccc(OP(=O)(O)O)cc1)C(=O)O

T1: hFGFR1 peptide, 22-residue peptide derived from the juxtamembrane region of hFGFR1 (residues 409-430 of SEQ … (named hFGFR1 (human); SEQ ID NO:2 is …)
T1 peptide: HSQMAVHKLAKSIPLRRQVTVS

B1: SNT-1 PTB domain (amino acid residues 11-140 of SEQ ID NO:1) (other)
chain: DTVPDNHRNKFKVINVDDDGNELGSGIMELTDTELILYTRKRDSVKWHYLCLRRYGYDSNLFSFESGRRCQTGQGIFAFKCARAEELFNMLQEIMQNNSINVVEEPVVERNNHQTELEVPRTPRTPTTPGLVPR
B2: tyrosine-phosphorylated peptide LVIAGNPApYRS (SEQ ID NO:4) (peptide)
peptide: LVIAGNPA[pY]RS

Legend:
[1] = molecular target: T1, hFGFR1 peptide, 22-residue peptide …; assay: isothermal titration calorimetry (ITC)
[2] = molecular target: B1; assay: method not stated

| Binder | Kd [1] | Kd [2] | fold higher affinity than for the FGFR derived peptide of SEQ ID NO:3 [2] |
| --- | --- | --- | --- |
| B1 | ~10 µM | – | – |
| B2 | – | ~1 µM | ~10 fold |
